In patent US20230075753A1 one finds IC50 (read off the curve), Hu KLK5 IC50, inhibition of protease activity (Boc-VPR-AMC) (not printed (M by Table 2)) and IC50 (M), inhibition of kallikrein protease activity (fluorogenic peptide substrate) data, which are given here for one substance.

Several values for one entry are separate records, joined by “and”; a condition that tells them apart may be missing. Identical values can stand only once.

The target of assay [1] is Active cyno KLK5 (cynomolgus monkey).
Assay [2] has as its target Active human KLK5 (human) (UniProt Q9Y337). The assay can be described thus: cell-based or functional assay.

Substance Human LEKTI D5 rabbit Fc fusion protein showed an IC50 (read off the curve) in assay [1] of 0.7 nM. In assay [2], the Hu KLK5 IC50, inhibition of protease activity (Boc-VPR-AMC) (not printed (M by Table 2)) is 1.03e-10 and 7.44e-11; the IC50 (M), inhibition of kallikrein protease activity (fluorogenic peptide substrate) amounted to 1.03e-10 M.
